The values below come from article PMC8286842, “The structures of E. coli NfsA bound to the antibiotic nitrofurantoin; to 1,4-benzoquinone and to FMN” (Biochemical Journal, 2021).

What all share (assay type): biochemical, Escherichia coli
Substrate in data set [1]: NC(=O)C1=CN([C@@H]2O[C@H](COP(=O)(O)OP(=O)(O)OC[C@H]3O[C@@H](n4cnc5c(N)ncnc54)[C@H](OP(=O)(O)O)[C@@H]3O)[C@@H](O)[C@H]2O)C=CC1
The experiment in a line: steady-state kinetics, purified enzyme (global ping-pong fit with nitrofurantoin). Particulars: FMN; pH 7.0; 25.0 °C; varied: cofactor.

Substrate in data set [2]: NC(=O)N/N=C/c1ccc([N+](=O)[O-])o1
In words: steady-state kinetics of reduction by NADPH, purified enzyme. Particulars: FMN; pH 7.0; 25.0 °C.

Substrate in data set [3]: NC(=O)c1cc(N2CC2)c([N+](=O)[O-])cc1[N+](=O)[O-]
The data set is described as above. To be noted: FMN; pH 7.0; 25.0 °C.

Substrate in data set [4]: CC1=CC(=O)c2ccccc2C1=O
The experiment in a line: purified protein. To be noted: FMN; pH 7.0; 25.0 °C.

Substrate in data set [5]: O=C1C=CC(=O)C=C1
The experiment in a line: purified protein. Particulars: FMN active site, stacked on FMN; O2′ hydroxyl of FMN, backbone NH of Ser […], Gln […], close to Arg […]; a separate, additional quinol ring appears covalently attached at Cys […]; pH 7.0; 25.0 °C.

Substrate in data set [6]: O=C1CN(/N=C/c2ccc([N+](=O)[O-])o2)C(=O)N1
In words: purified protein. Particulars: FMN active site, parallel to the FMN ring; hydrogen bonds involving Arg […], Lys […], Arg […] and Ser […]; pH 7.0; 25.0 °C.

B1: NfsA (Escherichia coli K-12) (protein)
chain: MTPTIELICGHRSIRHFTDEPISEAQREAIINSARATSSSSFLQCSSIIRITDKALREELVTLTGGQKHVAQAAEFWVFCADFNRHLQICPDAQLGLAEQLLLGVVDTAMMAQNALIAAESLGLGGVYIGGLRNNIEAVTKLLKLPQHVLPLFGLCLGWPADNPDLKPRLPASILVHENSYQPLDKGALAQYDEQLAEYYLTRGSNNRRDTWSDHIRRTIIKESRPFILDYLHKQGWATR
notes: untagged, dimer
B1: the Km in data set [1] is recorded as 10.9 ± 1.6 (Km) µM; in data set [2], 13 ± 2 (Km) µM; in data set [3], 190 ± 20 (Km) µM; in data set [4], 11 ± 2 (Km app) µM; in data set [5], 3 ± 0.4 (Km app) µM; in data set [6] it was 20.6 ± 1.6 (Km) µM. For the same protein, the kcat in data set [1] was 81 ± 3 s⁻¹; in data set [2], 29.6 ± 0.9 s⁻¹; in data set [3] it was 42 ± 1 s⁻¹; in data set [4], 9 ± 0.4 s⁻¹; in data set [5], 24 ± 0.8 s⁻¹; in data set [6] it was 81 ± 3 s⁻¹. Further, the kcat/Km in data set [1] was 7.4e+06 ± 1e+06 M⁻¹ s⁻¹; in data set [2], 2.3e+06 ± 200000 M⁻¹ s⁻¹; in data set [3] it was 230000 ± 2000 M⁻¹ s⁻¹; in data set [4] it was 820000 ± 80000 M⁻¹ s⁻¹; in data set [5], 8e+06 ± 800000 M⁻¹ s⁻¹; in data set [6], 3.9e+06 ± 200000 M⁻¹ s⁻¹.
